Measurements from WO2011004847A1 (dated 2011).
Numbering of substitutions follows the chain as printed. “And” between values parts separate entries of the source, which are not always exact repeats. Equal entries are not always repeated. Values belong to the binder of their own block, whether it stands above or below them.

Target: T1, human α9 integrin molecule expressed on SW480 cells (human, UniProt Q13797 30-1035)
T1 sequence (looked up): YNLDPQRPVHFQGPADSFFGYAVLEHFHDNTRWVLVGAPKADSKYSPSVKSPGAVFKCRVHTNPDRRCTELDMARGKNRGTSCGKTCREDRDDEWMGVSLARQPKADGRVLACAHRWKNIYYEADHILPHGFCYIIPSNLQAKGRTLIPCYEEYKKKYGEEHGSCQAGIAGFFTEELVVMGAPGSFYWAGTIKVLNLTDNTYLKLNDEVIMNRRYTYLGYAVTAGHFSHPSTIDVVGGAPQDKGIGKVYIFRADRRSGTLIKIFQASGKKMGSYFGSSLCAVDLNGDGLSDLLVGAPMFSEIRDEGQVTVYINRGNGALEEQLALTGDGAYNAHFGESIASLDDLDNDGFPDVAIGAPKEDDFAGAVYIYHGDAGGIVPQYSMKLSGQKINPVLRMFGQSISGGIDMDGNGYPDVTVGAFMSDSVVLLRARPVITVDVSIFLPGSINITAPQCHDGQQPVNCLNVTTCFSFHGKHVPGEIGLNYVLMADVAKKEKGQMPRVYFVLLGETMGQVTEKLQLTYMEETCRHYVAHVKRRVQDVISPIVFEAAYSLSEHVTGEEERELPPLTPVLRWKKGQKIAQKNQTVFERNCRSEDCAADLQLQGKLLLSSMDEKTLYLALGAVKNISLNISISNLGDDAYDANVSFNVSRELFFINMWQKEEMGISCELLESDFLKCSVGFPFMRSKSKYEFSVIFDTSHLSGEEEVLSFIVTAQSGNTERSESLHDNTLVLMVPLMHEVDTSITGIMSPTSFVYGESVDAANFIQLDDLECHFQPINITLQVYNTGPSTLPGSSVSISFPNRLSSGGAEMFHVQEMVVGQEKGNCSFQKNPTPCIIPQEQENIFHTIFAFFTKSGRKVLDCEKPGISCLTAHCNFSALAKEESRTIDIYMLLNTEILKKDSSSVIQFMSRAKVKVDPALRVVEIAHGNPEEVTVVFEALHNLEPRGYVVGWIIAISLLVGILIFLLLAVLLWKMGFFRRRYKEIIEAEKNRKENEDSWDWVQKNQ
Experiment: cell-based or functional assay

cell adhesion inhibitory activity relative to mouse Y9A2 antibody: ~4 fold | concentration giving significant inhibition of migration of SW480/hα9 cells toward nOPN-RAA: 5 µg/mL
B1: RY9A2v12 (W33FM34L) 012 antibody (antibody, human IgG1, kappa, V domains shown)
VH: QVQLVQSGAEVKKPGSSVKVSCKASGYTLTTYFLHWVRQAPGQGLEWMGYINPSSGYTEYNQKFQGRVTITADKSTSTAYMELSSLRSEDTAVYYCAIYGDYGDFYFDYWGQGTTVTVSS
VL: DIQMTQSPSSLSASVGDRVTITCRASQSVNTDVAWYQQKPGKAPKLLIYFASNHYTGVPSRFSGSGSGTDFTFTISSLQPEDIATYYCRQDYSSPFTFGGGTKVEIKR

cell adhesion inhibitory activity relative to mouse Y9A2 antibody: ~4 fold | concentration giving significant inhibition of migration of SW480/hα9 cells toward nOPN-RAA: 5 µg/mL
B2: RY9A2v12 (W33YM34L) 012 antibody (antibody, human IgG1, kappa, V domains shown)
VH: B1 VH with F33Y
VL: B1 VL

IC50 (μg/mL), cell adhesion inhibition test: 0.07 µg/mL and 0.039 µg/mL | concentration giving significant inhibition of migration of SW480/hα9 cells toward nOPN-RAA: 50 µg/mL
B3: mouse anti-human α9 integrin antibody Y9A2 (antibody, V domains shown)
VH: QVQLQQSGAELANPGASVKMSCKASGYTLTTYWMHWVKQRPGQGLEWIGYINPSSGYTEYNQKFKDKATLTADKSSSTAYMQLTSLTSEDSAVYYCAIYGDYGDFYFDYWGQGTTLTVSS
VL: SIVMTQTPKFLLVSAGDRVTMTCKASQSVNTDVAWFQQKPGQSPKLLIYFASNHYTGVPDRFTGSGYGTDFTFTISTVQAEDLAIYFCRQDYSSPFTFGGGTKLEIKR
